Residue numbers refer to the chain shown, from its start. In names and notes the source's numbering stands.
B1: TPP-957; PD138G7(G109D)-6GS-172E1-13-6GS-HSA2-His (bispecific antibody)
chain: EVQLVESGGGVVRPGGSLRLSCAASGFTFDDYAMSWVRQAPGKGLEWVSGITWNGGSTGYADSVKDRFTISRDNAKNSLYLQMNSLRAEDTALYYCVRDKYSYAWSYDDFDIWGQGTMVTVSSGGGGSGGGGSGGGGSGGGGSGGGGSGGGGSEVQLVESGGGVVQPGGSLRLSCAASGFTFSNYGMHWVRQAPGKGLEWVAVISNDGNTKTYADSVKGRFTISRDNSKNTLYLQMNSLRAEDTAVYYCAQDETTTVTASYYFDYWGQGTLVTVSSGGGGSGGGGSGGGGSGGGGSGGGGSGGGGSEVQLVESGGGLVKPGGSLRLSCAASGFTFSNYNMNWVRQAPGKGLEWVSSISSAGTHIYYADSVKGRFTISRDNAKNSLYLQMNSLRAEDTAVYYCARDPHSTGWYKDFDYWGQGTLVTVSSAAAHHHHHH
notes: Single-chain VH fusion (PD-1 VH, CD137 VH, HSA VH), His tag
B2: TPP-984: CD137D -6GS-HSA2-6GS-PDA-His (bispecific antibody)
chain: EVQLVESGGGVVQPGGSLRLSCAASGFTFSNYGMHWVRQAPGKGLEWVAVISNDGNTKTYADSVKGRFTISRDNSKNTLYLQMNSLRAEDTAVYYCAQDETTTVTASYYFDYWGQGTLVTVSSGGGGSGGGGSGGGGSGGGGSGGGGSGGGGSEVQLVESGGGLVKPGGSLRLSCAASGFTFSNYNMNWVRQAPGKGLEWVSSISSAGTHIYYADSVKGRFTISRDNAKNSLYLQMNSLRAEDTAVYYCARDPHSTGWYKDFDYWGQGTLVTVSSGGGGSGGGGSGGGGSGGGGSGGGGSGGGGSEVQLVESGGGLVQPGRSLRLSCAASGFTFDDYALHWVRQAPGKDLEWVSGISWNGGSYGYADSVKGRFTISRDNAKNSLYLQMNSLRAEDTALYYCVREKGPGLTGSTADYYGLDAWGQGTMVTVSSAAAHHHHHH
notes: Single-chain VH fusion (CD137 VH, HSA VH, PD-1 VH), His tag
B3: TPP-971: PDA2-6GS-HSA2-6GS-172E1-13-His (bispecific antibody)
chain: EVQLVESGGGVVRPGGSLRLSCAASGFTFDDYAMSWVRQAPGKGLEWVSGITWNAGSTGYADSVKGRFTISRDNAKNSLYLQMNSLRAEDTALYYCVRDKYSYAWSYDDFDIWGQGTMVTVSSGGGGSGGGGSGGGGSGGGGSGGGGSGGGGSEVQLVESGGGLVKPGGSLRLSCAASGFTFSNYNMNWVRQAPGKGLEWVSSISSAGTHIYYADSVKGRFTISRDNAKNSLYLQMNSLRAEDTAVYYCARDPHSTGWYKDFDYWGQGTLVTVSSGGGGSGGGGSGGGGSGGGGSGGGGSGGGGSEVQLVESGGGVVQPGGSLRLSCAASGFTFSNYGMHWVRQAPGKGLEWVAVISNDGNTKTYADSVKGRFTISRDNSKNTLYLQMNSLRAEDTAVYYCAQDETTTVTASYYFDYWGQGTLVTVSSAAAHHHHHH
notes: Single-chain VH fusion (PD-1 VH, HSA VH, CD137 VH), His tag
B4: TPP-982: CD137A -6GS-HSA2-6GS-PDA-His (bispecific antibody)
chain: EVQLVESGGGLVQPGGSLRLSCAASGFTLSNYWMNWVRQAPGKGLEWVANINQDGSERYYVDSVKGRFTISRDNAKNSLYLQMNSLRAEDTAVYYCARGGEGYGVDHYGLDVSGQGTTVTVSSGGGGSGGGGSGGGGSGGGGSGGGGSGGGGSEVQLVESGGGLVKPGGSLRLSCAASGFTFSNYNMNWVRQAPGKGLEWVSSISSAGTHIYYADSVKGRFTISRDNAKNSLYLQMNSLRAEDTAVYYCARDPHSTGWYKDFDYWGQGTLVTVSSGGGGSGGGGSGGGGSGGGGSGGGGSGGGGSEVQLVESGGGLVQPGRSLRLSCAASGFTFDDYALHWVRQAPGKDLEWVSGISWNGGSYGYADSVKGRFTISRDNAKNSLYLQMNSLRAEDTALYYCVREKGPGLTGSTADYYGLDAWGQGTMVTVSSAAAHHHHHH
notes: as for B2
B5: TPP-983: CD137A -6GS-HSA2-6GS-PDA2-His (bispecific antibody)
chain: EVQLVESGGGLVQPGGSLRLSCAASGFTLSNYWMNWVRQAPGKGLEWVANINQDGSERYYVDSVKGRFTISRDNAKNSLYLQMNSLRAEDTAVYYCARGGEGYGVDHYGLDVSGQGTTVTVSSGGGGSGGGGSGGGGSGGGGSGGGGSGGGGSEVQLVESGGGLVKPGGSLRLSCAASGFTFSNYNMNWVRQAPGKGLEWVSSISSAGTHIYYADSVKGRFTISRDNAKNSLYLQMNSLRAEDTAVYYCARDPHSTGWYKDFDYWGQGTLVTVSSGGGGSGGGGSGGGGSGGGGSGGGGSGGGGSEVQLVESGGGVVRPGGSLRLSCAASGFTFDDYAMSWVRQAPGKGLEWVSGITWNAGSTGYADSVKGRFTISRDNAKNSLYLQMNSLRAEDTALYYCVRDKYSYAWSYDDFDIWGQGTMVTVSSAAAHHHHHH
notes: as for B2
B6: TPP-951: PDA2-6GS-172E1-13-6GS-HSA3-His (bispecific antibody)
chain: EVQLVESGGGVVRPGGSLRLSCAASGFTFDDYAMSWVRQAPGKGLEWVSGITWNAGSTGYADSVKGRFTISRDNAKNSLYLQMNSLRAEDTALYYCVRDKYSYAWSYDDFDIWGQGTMVTVSSGGGGSGGGGSGGGGSGGGGSGGGGSGGGGSEVQLVESGGGVVQPGGSLRLSCAASGFTFSNYGMHWVRQAPGKGLEWVAVISNDGNTKTYADSVKGRFTISRDNSKNTLYLQMNSLRAEDTAVYYCAQDETTTVTASYYFDYWGQGTLVTVSSGGGGSGGGGSGGGGSGGGGSGGGGSGGGGSEVQLLESGGGLVKPGGSLRLSCAASGFTVSSYTMNWVRQAPGKGLEWVSSISSSGRYIYYADSVKGRFTISRDNAKNSLYLQMNSLRAEDTAVYYCARDPRMVGNPHEFDIWGQGTMVTVSSAAAHHHHHH
notes: as for B1
B7: TPP-958: PD138G7(G109D)-6GS-172E1-13-6GS-HSA3-His (bispecific antibody)
chain: B6 chain with A55G, G66D
notes: as for B1
B8: TPP-985: CD137D -6GS-HSA2-2-6GS-PDA2-His (bispecific antibody)
chain: EVQLVESGGGVVQPGGSLRLSCAASGFTFSNYGMHWVRQAPGKGLEWVAVISNDGNTKTYADSVKGRFTISRDNSKNTLYLQMNSLRAEDTAVYYCAQDETTTVTASYYFDYWGQGTLVTVSSGGGGSGGGGSGGGGSGGGGSGGGGSGGGGSEVQLVESGGGLVKPGGSLRLSCAASGFTFSNYNMNWVRQAPGKGLEWVSSISSAGTHIYYADSVKGRFTISRDNAKNSLYLQMNSLRAEDTAVYYCARDPHSTGWYKDFDYWGQGTLVTVSSGGGGSGGGGSGGGGSGGGGSGGGGSGGGGSEVQLVESGGGVVRPGGSLRLSCAASGFTFDDYAMSWVRQAPGKGLEWVSGITWNAGSTGYADSVKGRFTISRDNAKNSLYLQMNSLRAEDTALYYCVRDKYSYAWSYDDFDIWGQGTMVTVSSAAAHHHHHH
notes: as for B2
B9: TPP-1023: CD137A -6GS-HSA3-6GS-PDA-His (bispecific antibody)
chain: EVQLVESGGGLVQPGGSLRLSCAASGFTLSNYWMNWVRQAPGKGLEWVANINQDGSERYYVDSVKGRFTISRDNAKNSLYLQMNSLRAEDTAVYYCARGGEGYGVDHYGLDVSGQGTTVTVSSGGGGSGGGGSGGGGSGGGGSGGGGSGGGGSEVQLLESGGGLVKPGGSLRLSCAASGFTVSSYTMNWVRQAPGKGLEWVSSISSSGRYIYYADSVKGRFTISRDNAKNSLYLQMNSLRAEDTAVYYCARDPRMVGNPHEFDIWGQGTMVTVSSGGGGSGGGGSGGGGSGGGGSGGGGSGGGGSEVQLVESGGGLVQPGRSLRLSCAASGFTFDDYALHWVRQAPGKDLEWVSGISWNGGSYGYADSVKGRFTISRDNAKNSLYLQMNSLRAEDTALYYCVREKGPGLTGSTADYYGLDAWGQGTMVTVSSAAAHHHHHH
notes: as for B2
B10: TPP-975: CD137D-6GS-PDA2-6GS-HSA2-His (bispecific antibody)
chain: EVQLVESGGGVVQPGGSLRLSCAASGFTFSNYGMHWVRQAPGKGLEWVAVISNDGNTKTYADSVKGRFTISRDNSKNTLYLQMNSLRAEDTAVYYCAQDETTTVTASYYFDYWGQGTLVTVSSGGGGSGGGGSGGGGSGGGGSGGGGSGGGGSEVQLVESGGGVVRPGGSLRLSCAASGFTFDDYAMSWVRQAPGKGLEWVSGITWNAGSTGYADSVKGRFTISRDNAKNSLYLQMNSLRAEDTALYYCVRDKYSYAWSYDDFDIWGQGTMVTVSSGGGGSGGGGSGGGGSGGGGSGGGGSGGGGSEVQLVESGGGLVKPGGSLRLSCAASGFTFSNYNMNWVRQAPGKGLEWVSSISSAGTHIYYADSVKGRFTISRDNAKNSLYLQMNSLRAEDTAVYYCARDPHSTGWYKDFDYWGQGTLVTVSSAAAHHHHHH
notes: Single-chain VH fusion (CD137 VH, PD-1 VH, HSA VH), His tag

target: T1, human PD-1 expressed on CHO cells (human, UniProt Q15116 21-288); experiment: FMAT/Mirrorball on CHO huPD1 cells
T1 construct: also called CHO huPD1; CHO human PD1 cells
Procedure: (§1) Binding of His-tagged molecules to CHO human CD137, CHO parent and CHO human PD1 cells was assessed using Fluorescence Microvolume Assay Technology (FMAT). All reagents were prepared in FMAT assay buffer (pH 7.4) containing PBS, 0.1% Bovine Serum Albumin, 0.05% Sodium Azide. […] Fluorescence emission was then measured on the TTP Mirrorball plate reader in the FL2 (502 nm-537 nm) and FL5 (677-800 nm) channels following excitation at 488 nm and 640 nm. Data was gated on FL5 perimeter and peak intensity and the FL2 median mean fluorescence intensity of the gated data used for determination of VH binding. Monovalent CD137 specific Humabody® VH, and trispecific molecules with a CD137 binding arm bound to CHO CD137 expressing cells. Trispecific Humabody® VH, with a PD1 binding arm bound to PD1 expressing cells.

EC50 [nM]	Binder
0.766	B1
0.264	B2
0.414	B3
0.332	B4
0.24	B5
0.805	B6
0.346	B7
0.541	B8
0.626	B9
0.792	B10

target: T2, human CD137 expressed on CHO cells (human, UniProt Q07011 18-255); experiment: FMAT/Mirrorball on CHO huCD137 cells
T2 construct: also called CHO huCD137; CHO human CD137 cells
Procedure: as §1

EC50 [nM]	Binder
1.17	B1
0.314	B2
0.223	B3
0.0896	B4
0.0443	B5
0.419	B6
0.499	B7
0.382	B8
0.145	B9
0.39	B10
